Results as given in PMC6391002, “Myc-induced nuclear antigen constrains a latent intestinal epithelial cell-intrinsic anthelmintic pathway” (PLoS ONE, 2019).

Experiments:
[1] = system: L3 TM larvae; format: cell-based, Trichuris muris
Method: Synthetic reduced (r-)Defa1, r-Defa2, r-Defa4, r-Defa5 and r-Defa6, r-Defa20, r-Defa21, r-Defa23 and r-Defa24 were purchased from Medical and Biological Laboratories Co., Ltd. (Nagoya, japan) and stored at -30°C until use. Three pairs of disulfide bonds were introduced into synthetic Defa1 and Defa4 (Medical and Biological Laboratories Co., Ltd., Nagoya, japan) by air oxidation as described previously. Using reverse-phase high-performance liquid chromatography (RP-HPLC) reaction mixtures were applied to C-18 columns (SepaxHP-C18, 4.6 x 150mm, […]; Sepax Technologies, Newark, DE, USA) in 0.1% trifluoroacetic acid with an 18–36% acetonitrile gradient developed over 30min at 1ml/min. […] Disulfide bond status of Defas was evaluated by acid-urea PAGE and MALDI-TOF MS (Voyager-DE PRO; Applied Biosystems, Carlsbad, Calif., USA) as described previously. […]
Supplementary file pone.0211244.s012.pdf: S12 Fig Cytotoxic activity of α-defensins toward L3 TM larvae. Cytotoxic activity of reduced (r-) α-defensins 5, 20, 21, 23 and 24 against L3 TM larvae was measured by lactate dehydrogenase release assay. […]
Cytotoxic activity of reduced (r-) α-defensins 1, 2, 4, 5 and 6 against L3 TM larvae was measured by lactate dehydrogenase release assay. […]
Cytotoxic activity of reduced (r-) and oxidized (o-) α-defensins 1 and 4 against L3 TM larvae was measured by lactate dehydrogenase release assay. […]

[2] = system: LPS; macrophage production of TNF; conditions: reduced peptide; ref [27]; cited from earlier work
Source text: Given the prominence of α-defensin and α-defensin-related genes in the Mina genetic perturbation signature we considered whether they might contribute to the IEC-intrinsic roles of Mina in response to TM infection. Upregulation of α-defensins in Mina^ΔIEC mice could promote accelerated TM expulsion via multiple non-mutually exclusive mechanisms. First, it is well established that α-defensins can shape commensal microbiota diversity. Thus, α-defensins may act indirectly by altering commensal microbiota diversity, thereby eliminating niches essential for, or creating ones hostile toward, ...

**Q.** Which “cytotoxicity against L3 TM larvae after oxidation of the peptide (oxidized, o-, form with three disulfide bonds), S14 Fig” value [1] does the source give for “Defa1: Synthetic reduced mouse α-defensin 1 peptide purchased from Medical and Biological Laboratories (LRDLVCYCRSRGCKGRERMNGTCRKGHLLYTLCCR; Alpha-defensin 1 reduced; UniProt P11477 59-93, looked up)” here?
**A.** Its value is “abolished by oxidation”.

B1: HD5: Reduced human enteric defensin 5, literature result (peptide, UniProt Q01523 20-94, looked up)
Defensin alpha 5: ESLQERADEATTQKQSGEDNQDLAISFAGNGLSALRTSGSQARATCYCRTGRCATRESLSGVCEISGRLYRLCCR
modifications: Defensin-5 reduced form
notes: Reduced human enteric defensin 5, literature result
**Q.** Which results are given for B1?
**A.** LPS neutralization [2]: can neutralize LPS; macrophage production of TNF [2]: suppress
